From the DeepSol protein solubility set

Assay: soluble on expression in E. coli; label from the status in PepcDB or PDB records

Sequence | soluble on expression in E. coli
MNSNMVFARVNEADVTEAILDGFYSSLKKHLRSDVIVVGAGPAGLTAAWRLAEAGARVLIVEQNNYLGGGLWLGGYFMNPVTIRAPAQRILDELEVPYEAVKPGLYRTKGPLLAAKLAARALEAGAEVLNLTMLDDVIVENSRVAGVVVNWSPVQGLPRQITCVDPVGLRAEYVVDATGHDAVVTRKLAERGMVEASKLGPMWVERSEDLVVEKTGEVYPGLVVAGIAVAEVYGLPRMGPTFGAMLLSGEKAAALIGEKLGLKVKVAAAPASQA | soluble
MSRRKAGSAPRRVEPAPAANPDDEMEMQDLVIELKPEPDAQPQQAPRLGPFSPKEVSSAGRFGGEPHHSPGPMPAGAALLALGPRNPWTLWTPLTPNYPDRQPWTDKHPDLLTCGRCLQTFPLEAITAFMDHKKLGCQLFRGPSRGQGSEREELKALSCLRCGKQFTVAWKLLRHAQWDHGLSIYQTESEAPEAPLLGLAEVAAAVSAVVGPAAEAKSPRASGSGLTRRSPTCPVCKKTLSSFSNLKVHMRSHTGERPYACDQCPYACAQSSKLNRHKKTHRQVPPQSPLMADTSQEQASAAPPEPAVHAAAPTSTLPCSGGEGAGAAATAGVQEPGAPGSGAQAGPGGDTWGAITTEQRTDPANSQKASPKKMPKSGGKSRGPGGSCEFCGKHFTNSSNLTVHRRSHTGERPYTCEFCNYACAQSSKLNRHRRMHGMTPGSTRFECPHCHVPFGLRATLDKHLRQKHPEAAGEA | not soluble
MKCGLEIHVQLDTRSKLFCRCPTDYQEAPPNTNICPVCLNQPGAKPYPPNRSALEGALKIALMLDCRINPEITYFMRKHYNYPDLPSGYQRTSIPVGLEGELNGVRIREVHIEEDPGQYKPDQGTVDFNRSGIPLIEIVTEPDMTSPEEARNFLRELIRVLEYSGCARGEGTMRADVNISLEGGKRVEIKNINSIKGAYKALKFEMIRQKNLLKRGVEVKQETRAFLESQMITVSMRLKEEAEDYRYIPDPDLPPMKFTDEVVEGLRERIPEAPHLKVKRFMEEYGLREEDARVLTSELELADAFEEVAGSIDPEFAALWMRDELKRVLYYNKISFAESMITPGDIIELLAMIRKKEITSKAAKKIIEEMPLNKKGPREIATEMGLIGIIDESEVIRAVEQAIRENPGAVEDYHAGKEAAINFLVGQVMRMTRGKAEPERTVELIKERI | soluble
MFVELNNLLNTTPDRAEQGKLTLLCDAKTDGSFLVHHFLSFYLKANCKVCFVALIQSFSHYSIVGQKLGVSLTMARERGQLVFLEGLKSAVDVVFQAQKEPHPLQFLREANAGNLKPLFEFVREALKPVDSGEARWTYPVLLVDDLSVLLSLGMGAVAVLDFIHYCRATVCWELKGNMVVLVHDSGDAEDEENDILLNGLSHQSHLILRAEGLATGFCRDVHGQLRILWRRPSQPAVHRDQSFTYQYKIQDKSVSFFCQRNVSCCSVT | soluble
GPGSGRYREGVEDCTKTLQIDKEFYKAYARRARCHEHLGDHFAAVRDFKKAIEYDSTDRELARELRAAEQNLAKEAEKERDFYFQLGVSRTATEREIKLKYRELSLRWHPDKCIGLDEVERERAEHKFKIISEAYATLVDAGKRREYDAKQDRERFTRAGGFNFSSTYSGGNANDYYRGRHRAGGNGFW | soluble
MDGSMGEGGGQILRTAVALAAVLGRPLRIVNIRAKRRPPGLRPQHLTAVRAVAAISGGRLRGAEVGSTSLEFTPGRVRGGRYRFDVGTAGSVALIIQALAPLLAYSDSPVEVELTGGTDVPMAPTIDYMREVFASILAMLGYEIEIRVLRRGHYPRGGGRVVVRVPDPPGGFRARSFVERGPLKGVYVRSHAVKLPGSIAERQARSAASLVRERLGVDPIVEIEAYKPHRDPHLGPGTGVLVWAVFGETVMGGDSIGKKGKPAEVVGREAAESLLEDMATGAALDRHMSDMAPVYLALAGGVSTVFGARLTGHASTILELLRIMVDGFEYRILEGGLERPFKAELRGAGVSPR | soluble
MGSDKIHHHHHHMSNTNDLLNRINAKYSTMSKGHKLLATYITDNYDKAVFLTAAKMGETVGISESTVVRFATSLGYKGYPDFQKALEELVRNKLNSVQRMEVTYGRISQSQILETVLQSDRDKIKTTLEKIDADAFDLAVDTILQSRKIYIVGIRSCAPLASFLAFYMNLMFEDVCLLTTNSSSELFEQMVRIGKDDVIIGISFPRYSMRTLKALEFANNRSAKVITITDSIHSPMNLYSSCNLIADSDMASIVDSLVAPLSVINALIVALCMKKQNIVAKTLTELEDIWNEYQVYENDEIDYIDDSIKVHYAKLGDSQDE | not soluble
MERPRFSNYYAVRVTGGQEINVALMIEERIKTNNIKEVYSIIVPPNVKGYVILEATGPHVVKLVSQGIRHVRGFAQGLVQKDDIIKFISKTTIAPAYKVGDMVEVTSGPFRGMQAQVVRIDSAKNEVVLNILESSFPLQVTVPIDQVKPVKK | soluble
VWVSENIERLIGYTPGEALAPGWWLSHLYPDDREQVLERQPILLSDGQLTHDYRFYHRDGRIIWILDELRLIRNADGQPHEVVGTWLDIS | not soluble
MNRIIDMRCRPPLPEFREYFDIPRITWHGARTGAKQVSRAFVEGSMDLFFEEMDQAGIEIAVVQGRNSPAVFMGKQFNAAFIPNERLAQIQDQYAGRFVCFAGIDVSNTAHNAVEETVRSIKSLGLKGIFIEPGRQIQSTPDDERIFPVYEKCIELDIPVNLMSGPYAGADIGVSDPLYVDRLCTRYPELKIILGHGGYPYVQQILGVAFKHTNLFVSPDMYVFAPGGQAYIDAANGALRDQMVYGSAYPLRPVTQTVSDTLGLGLSADSERAYLELNARKLLNIAAALEHHHHHH | not soluble
MGSDKIHHHHHHMKIQPLPPLNSLHAFESAARHLSFTLAAKELNVTQGAISRQVRLLEDYLGKALFTRTTRSMSLTPTGAQYYETVRECMLHLARATGDIRQWQGNQQVTVATSTAMASLWLLPKVSEFQSAHENIDLRIIAHDHVKDYARLDSDLALYYCNPPPKDMAVTPLFSEEIFLVCSPAYLARHPQLSSIEGLSSCTWLWLEDSQRDWVGWPEWFKRLGYEPMTPKHRVNINSYGMLIQSAISGQGVALAWGNLVDDALSTGALVKPNDVVLQTDAKFCLLESSTERGPRESVRLFRDWLMALPSVQK | not soluble
VLIAGYLTDWRIMTTAQLRPIAPQKLHFSENLSVWVSDAQCRLVVSQPALDPTLWNTYLQGALRAYSKHGVECTLDLDAISDGSDTQLFFAAIDIGGDVVGGARVIGPLRSADDSHAVVEWAGNPGLSAVRKMINDRAPFGVVEVKSGWVNSDAQRSDAIAAALARALPLSMSLLGVQFVMGTAAAHALDRWRSSGGVIAARIPAAAYPDERYRTKMIWWDRRTLANHAEPKQLSRMLVESRKLLRDVEALSATTAATAGAEQ | not soluble
PIDWNPQRIAVSGVSGVGKTTLCKQIAALSGFPRVELDSLYHGENWVPRETFVAEVQDFIKGPQWVMELQYRQVRPLIVERADTVLWLDYSTPRQMFRLIKRTIPRSLFKTKL | not soluble
MANVESLYKELTAEWSKRPPNTVKCGQLLDQLKVALVKMAFLPTDGNDAQSSKKQLILARSVLEVAVEHSVLSKDLLAFERYMAQLKCYYYDYAKIIGESESKYKLLGLNLLYLLSGNRVSDFHTELELLSVDVIQHNQFIRPILALEQYIMEGRYNKIFQAKSTVPVEVYSYFMDLLLETVRDEIGACIEKSYDKISAKDAAKRLNLRVPDEIKAFGAKRQWKLEASGDYSFTDRSVKPKELLPSEELAEQVLSYARDLEMIV | not soluble
GMDVEIVEELSKMLAGRKAVTEEEIRRKAIRCALKIMGARLVGIDAELIEDVTCSLIDCPITLKSLHFSEKVKIGDVLFYHPHVIKPEKEDFEQAYFEYKQSKKFLDAFDIMREVTDRFFEGYEAEGRYMRKYTKDGRNYYAFFSTIDDTFEDVDIHLRMVDEVDGDYVVIVPTENELNPFLKFFKQYSEDAKRAGLKIWVVNPDEKTIDPFIGYPKDFRLLKGFKNPKAAALVSAYWRVTVTDLD | soluble
TEETNVLVLCAGGGTSGLLANALNKAAEEYGAPVKAAAGSYGAHREILDQYQLVILAPQVASNYEDMKAETDKLGIKLAKTEGAQYIGLTRDGKGALAFVEEQFKD | not soluble
MTYTLAILGCGVMGQALLSAIYNAPKAADETAAAFYPSKIITCNHDEPSAQQVTDLVETFDESPNGIKVESTYGHNVSAVEEASVVLLGTKPFLAEEVLNGVKSVIGGKLLISLAAGWTIDQLSQYTSTVCRVMTNTPAKYGYGCAVVSYSADVSKEQKPLVNELISQVGKYVELPEKNMDAATALVGSGPAFVLLMLESLMESGLKLGIPLQESKECAMKVLEGTVKMVEKSGAHPSVLKHQVCTPGGTTIAGLCVMEEKGVKSGIINGVEEAARVASQLGQKKK | soluble
MEIMLTYKTFKILGREILIGVVWEEKIQGIAYSLDGLEFLKDQLSRVTSHLKSRGVKVNLLEEKSRYPDLVFDVLKGKIGNEKGFEELSLEGLTRFEIKVYSWLVKNVKRGEVITYGKVAKALKTSPIAVGGAMKRNPYPIIVPCHRVVGKNNPWLYTPKPSYKKFLLEVEGWIS | soluble
MGSDKIHHHHHHVTILSPKAVPAPAASDAYGFGDRLTADFPSQINVDVTEVCNLACVHCPHPQFKKSVHYAGRMLDPALNDKMVEEVRDHGQGRVGYIRYTAAGEPMAHPAIFPMLAKAVARSGTTVSLTTNGMLLDEGRRARLLETGIHLIDISIDAFLPETYARVRVGGDLERVRGGVLRLMEGAARRVDPPKIVVSFVEQPFNQGETADFERFWKENGAAYVVIRRLHSCAGAAQDLAATLRVEQGETRRPCLYPWERIVLNPSGQLSFCPADWAHGAAIAEYRDTTIREVWQGPFYRALREAHLTNSYANHGFCGQCPDWASTRWPKQGRSYADMVQDFKETE | not soluble
YHLSLKQVNRLFDDDMVDFGEAALRLLDLATEDQAGEDGSITEIIERSREAIQGLPLLRRESALGYALWRDGQPLLSSLNLPPEITAQGPGFSTVEAQGTHWRVLQLNIDGFQIWISENLIYRQHTMNLL | not soluble
MAFANLRKVLISDSLDPCCRKILQDGGLQVVEKQNLSKEELIAELQDCEGLIVRSATKVTADVINAAEKLQVVGRAGTGVDNVDLEAATRKGILVMNTPNGNSLSAAELTCGMIMCLARQIPQATASMKDGKWERKKFMGTELNGKTLGILGLGRIGREVATRMQSFGMKTIGYDPIISPEVSASFGVQQLPLEEIWPLCDFITVHTPLLPSTTGLLNDNTFAQCKKGVRVVNCARGGIVDEGALLRALQSGQCAGAALDVFTEEPPRDRALVDHENVISCPHLGASTKEAQSRCGEEIAVQFVDMVKGKSLTGVVNAQALTSAFSPHTKPWIGLAEALGTLMRAWAGSPKGTIQVITQGTSLKNAGNCLSPAVIVGLLKEASKQADVNLVNAKLLVKEAGLNVTTSHSPAAPGEQGFGECLLAVALAGAPYQAVGLVQGTTPVLQGLNGAVFRPEVPLRRDLPLLLFRTQTSDPAMLPTMIGLLAEAGVRLLSYQTSLVSDGETWHVMGISSLLPSLEAWKQHVTEAFQFHF | soluble
SNRTSAKSNLMLILLGLQMKEISNSDLYKLKEVRSVVTSLASFLFQQQNVGVMKSFDSLEKEAFRDLVNRLVSQGLIGLKDKTSETFDLLPLKNLFEYAEKRISVLMKLQCYTGTVQLSHVQEKLHLPYITTNGIVDVFKECLKRTKKQYPEVLKNWWIDLDPKNGMEDQNSGILLHLEYAAAYS | soluble
MGSDKIHHHHHHLKLTKNIVSIVTDVILNESEAIKNLVNHINDDFQHIIDAILSCKGRVVITGIGKSAIIGNKIVATLNSTGTPALFMHAADAIHGDLGMIQGGDVVICISKSGNTPEIKVLVPLIKNRGTILIGMVGNVDSYLAVQSDYVLNVTVEREACPNNLAPTTSTTATLVMGDALAVALLECRNFSSEDFAQLHPGGALGKQLYLRVNDVYTANEKPMVAPDATVKDVILEISSKRLGAAAVVDSAGILQGIITDGDLRRMLNAHDSFKQLCAADIMTKAPKTIDADEFAASAMLLMQSKNITQLIVMKNENFAGFIHIHDLLKEGIV | not soluble
